US20060241051A1 (Takeda / Millennium, published 2006)
Like-named read-outs stand apart in the source and are kept apart here. Numbered stars: 1 amine (or outer) side, 2 acyl side, 3 side chain; on linkers, the order of the positions; unused ones are H or OH. Square brackets hold non-standard residues; d marks the D form. Ends that are not written are not given here. * marks the point of attachment. Ala(2-Qui) = 2-quinolylalanine, O=C([C@H](Cc1ccc2ccccc2n1)N[*:1])[*:2]; Tyr(Me) = O-methyltyrosine, COc1ccc(C[C@H](N[*:1])C(=O)[*:2])cc1; Arg(Me) = CNC(=N)NCCC[C@H](N)C(=O)O; Fmoc = O=C(OCC1c2ccccc2-c2ccccc21)*; azaGly = NNC(=O)O

B1: Compound No. 54: des(1-2)-Fmoc-MS10 (peptide)
peptide: Fmoc-WNSFGLRF-NH2
SMILES: CC(C)C[C@H](NC(=O)CNC(=O)[C@H](Cc1ccccc1)NC(=O)[C@H](CO)NC(=O)[C@H](CC(N)=O)NC(=O)[C@H](Cc1c[nH]c2ccccc12)NC(=O)OCC1c2ccccc2-c2ccccc21)C(=O)N[C@@H](CCCNC(=N)N)C(=O)N[C@@H](Cc1ccccc1)C(N)=O
B2: Compound No. 203: [D-Tyr1,Cha6,Arg(Me)9]MS10 (peptide)
peptide: YNWNSXGLRF
modifications: D-Tyr1; Cha6; Arg(Me)9; C-terminal amide
notes: printed structure is the same as that of Compound No. 172
B3: Compound No. 229: [D-Tyr1,Val3,Arg(Me)9]MS10 (peptide)
peptide: [dY]NVNSFGL[Arg(Me)]F-NH2
modifications: N-terminus assumed
SMILES: CNC(=N)NCCC[C@H](NC(=O)[C@H](CC(C)C)NC(=O)CNC(=O)[C@H](Cc1ccccc1)NC(=O)[C@H](CO)NC(=O)[C@H](CC(N)=O)NC(=O)[C@@H](NC(=O)[C@H](CC(N)=O)NC(=O)[C@H](N)Cc1ccc(O)cc1)C(C)C)C(=O)N[C@@H](Cc1ccccc1)C(N)=O
B4: Compound No. 235: [D-Tyr1,Ala3,AzaGly7,Arg(Me)9]MS10 (peptide)
peptide: [dY]NANSF[azaGly]L[Arg(Me)]F-NH2
modifications: N-terminus assumed
SMILES: CNC(=N)NCCC[C@H](NC(=O)[C@H](CC(C)C)NC(=O)NNC(=O)[C@H](Cc1ccccc1)NC(=O)[C@H](CO)NC(=O)[C@H](CC(N)=O)NC(=O)[C@H](C)NC(=O)[C@H](CC(N)=O)NC(=O)[C@H](N)Cc1ccc(O)cc1)C(=O)N[C@@H](Cc1ccccc1)C(N)=O
B5: Compound No. 234: [D-Tyr1,Val3,AzaGly7,Arg(Me)9]MS10 (peptide)
peptide: [dY]NVNSF[azaGly]L[Arg(Me)]F-NH2
modifications: N-terminus assumed
SMILES: CNC(=N)NCCC[C@H](NC(=O)[C@H](CC(C)C)NC(=O)NNC(=O)[C@H](Cc1ccccc1)NC(=O)[C@H](CO)NC(=O)[C@H](CC(N)=O)NC(=O)[C@@H](NC(=O)[C@H](CC(N)=O)NC(=O)[C@H](N)Cc1ccc(O)cc1)C(C)C)C(=O)N[C@@H](Cc1ccccc1)C(N)=O
B6: Compound No. 214: [D-Tyr1,Gln2,Arg(Me)9]MS10 (peptide)
peptide: [dY]QWNSFGL[Arg(Me)]F-NH2
modifications: N-terminus assumed
SMILES: CNC(=N)NCCC[C@H](NC(=O)[C@H](CC(C)C)NC(=O)CNC(=O)[C@H](Cc1ccccc1)NC(=O)[C@H](CO)NC(=O)[C@H](CC(N)=O)NC(=O)[C@H](Cc1c[nH]c2ccccc12)NC(=O)[C@H](CCC(N)=O)NC(=O)[C@H](N)Cc1ccc(O)cc1)C(=O)N[C@@H](Cc1ccccc1)C(N)=O
B7: Compound No. 215: [D-Tyr1,Thr2,Arg(Me)9]MS10 (peptide)
peptide: [dY]TWNSFGL[Arg(Me)]F-NH2
modifications: N-terminus assumed
SMILES: CNC(=N)NCCC[C@H](NC(=O)[C@H](CC(C)C)NC(=O)CNC(=O)[C@H](Cc1ccccc1)NC(=O)[C@H](CO)NC(=O)[C@H](CC(N)=O)NC(=O)[C@H](Cc1c[nH]c2ccccc12)NC(=O)[C@@H](NC(=O)[C@H](N)Cc1ccc(O)cc1)[C@@H](C)O)C(=O)N[C@@H](Cc1ccccc1)C(N)=O
B8: Compound No. 233: [D-Tyr1,Ile3,AzaGly7,Arg(Me)9]MS10 (peptide)
peptide: [dY]NINSF[azaGly]L[Arg(Me)]F-NH2
modifications: N-terminus assumed
SMILES: CC[C@H](C)[C@H](NC(=O)[C@H](CC(N)=O)NC(=O)[C@H](N)Cc1ccc(O)cc1)C(=O)N[C@@H](CC(N)=O)C(=O)N[C@@H](CO)C(=O)N[C@@H](Cc1ccccc1)C(=O)NNC(=O)N[C@@H](CC(C)C)C(=O)N[C@@H](CCCNC(=N)NC)C(=O)N[C@@H](Cc1ccccc1)C(N)=O
B9: Compound No. 224: des(1)-[D-Tyr2,D-Trp3,Arg(Me)9]MS10 (peptide)
peptide: [dY][dW]NSFGL[Arg(Me)]F-NH2
modifications: N-terminus assumed
SMILES: CNC(=N)NCCC[C@H](NC(=O)[C@H](CC(C)C)NC(=O)CNC(=O)[C@H](Cc1ccccc1)NC(=O)[C@H](CO)NC(=O)[C@H](CC(N)=O)NC(=O)[C@@H](Cc1c[nH]c2ccccc12)NC(=O)[C@H](N)Cc1ccc(O)cc1)C(=O)N[C@@H](Cc1ccccc1)C(N)=O
B10: Compound No. 1: Metastin (peptide)
peptide: GTSLSPPPESSGSRQQPGLSAPHSRQIPAPQGAVLVQREKDLPNYNWNSFGLRF
B11: Compound No. 201: [Ala(2-Qui)10]MS10 (peptide)
peptide: YNWNSFGLR[Ala(2-Qui)]-NH2
modifications: N-terminus assumed
SMILES: CC(C)C[C@H](NC(=O)CNC(=O)[C@H](Cc1ccccc1)NC(=O)[C@H](CO)NC(=O)[C@H](CC(N)=O)NC(=O)[C@H](Cc1c[nH]c2ccccc12)NC(=O)[C@H](CC(N)=O)NC(=O)[C@@H](N)Cc1ccc(O)cc1)C(=O)N[C@@H](CCCNC(=N)N)C(=O)N[C@@H](Cc1ccc2ccccc2n1)C(N)=O

Experiments:
[1] = biological target: T1, human OT7T175 (metastin receptor) (human, UniProt Q969F8 1-398); assay: FMAT competition with Cy-5-labeled metastin (40-54), hOT7T175-expressed CHO cells
T1 construct: expressed on CHO cells (hOT7T175-expressed CHO cells; hOT7T175/CHO); also called hOT7T175; h0T7T175

[2] = biological target: T1, human OT7T175 (metastin receptor); assay: cell-based or functional assay
[3] = biological target: T1, human OT7T175 (metastin receptor); assay: cell-based or functional assay; remark: listed apart in the source

T1 sequence (Q969F8 whole entry L364H): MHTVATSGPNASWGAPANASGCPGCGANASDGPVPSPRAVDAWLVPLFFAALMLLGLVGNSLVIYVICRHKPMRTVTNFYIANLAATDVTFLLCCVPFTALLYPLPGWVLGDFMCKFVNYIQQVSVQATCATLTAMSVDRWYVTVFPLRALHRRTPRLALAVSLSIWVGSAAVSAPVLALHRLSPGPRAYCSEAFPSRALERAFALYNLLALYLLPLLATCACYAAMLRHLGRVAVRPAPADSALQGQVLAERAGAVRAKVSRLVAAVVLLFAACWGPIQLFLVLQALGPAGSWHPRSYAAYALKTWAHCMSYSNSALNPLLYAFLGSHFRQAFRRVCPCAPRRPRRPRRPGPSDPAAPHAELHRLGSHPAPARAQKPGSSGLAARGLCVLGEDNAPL

| Binder | IC50 [1] [nM] | intracellular Ca ion level-increasing activity (FLIPR) [2] | intracellular Ca ion level-increasing activity (FLIPR) [3] |
| --- | --- | --- | --- |
| YNWNSFGLRX (Nal(2)10; C-terminal amide) [Compound No. 110: [Nal(2)10]MS10] | 24 | 20 specific activity to metastin (1-54) | – |
| Fmoc-NWNSFGLRF-NH2 [Compound No. 55: des(1)-Fmoc-MS10] | – | 5 specific activity to metastin (1-54) | – |
| B1 | 450 | 5 specific activity to metastin (1-54) | – |
| B2 | 37 | – | 10 specific activity to metastin (1-54) |
| [dY]WNSF[azaGly]L[Arg(Me)]F-NH2 [Compound No. 222: des(1)-[D-Tyr2,AzaGly7,Arg(Me)9]MS10] | 33 | – | 5 specific activity to metastin (1-54) |
| YNWNSFGLR[Tyr(Me)]-NH2 [Compound No. 18: [Tyr(Me)10]MS10] | 7.7 | 1 specific activity to metastin (1-54) | – |
| B3 | 130 | – | 1 specific activity to metastin (1-54) |
| YNWNSFALRF-NH2 [Compound No. 50: [Ala7]MS10] | 190 | 30 specific activity to metastin (1-54) | – |
| B4 | 100 | – | 1 specific activity to metastin (1-54) |
| B5 | 47 | – | 1 specific activity to metastin (1-54) |
| YNWNSFSLRF-NH2 [Compound No. 101: [Ser7]MS10] | 100 | 10 specific activity to metastin (1-54) | – |
| YNWNSFGLRY-NH2 [Compound No. 109: [Tyr10]MS10] | 23 | 20 specific activity to metastin (1-54) | – |
| B6 | 390 | – | 10 specific activity to metastin (1-54) |
| B7 | 250 | – | 10 specific activity to metastin (1-54) |
| YNWNLFGLRF-NH2 [Compound No. 24: [Leu5]MS10] | 0.83 | 1 specific activity to metastin (1-54) | – |
| B8 | 23 | – | 1 specific activity to metastin (1-54) |

| Binder | IC50 [1] [nM] | intracellular Ca ion level-increasing activity (FLIPR) [2] | intracellular Ca ion level-increasing activity (FLIPR) [3] |
| --- | --- | --- | --- |
| DNWNSFGLRF-NH2 [Compound No. 75: [Asp1]MS10] | 880 | 1 specific activity to metastin (1-54) | – |
| YNWNSFGLXF (Har9; C-terminal amide) [Compound No. 97: [Har9]MS10] | 370 | 10 specific activity to metastin (1-54) | – |
| [dY]NWNSF[azaGly]LR(Me)F-NH2 [Compound No. 232: [D-Tyr1,AzaGly7,Arg(Me)9]MS10] | 49 | – | 3 specific activity to metastin (1-54) |
| B9 | 140 | – | 2 specific activity to metastin (1-54) |
| Fmoc-NSFGLRF-NH2 [Compound No. 53: des(1-3)-Fmoc-MS10] | – | 1 specific activity to metastin (1-54) | – |
| [dY]WNSFGL[Arg(Me)]F-NH2 [Compound No. 217: des(1)-[D-Tyr2,Arg(Me)9]MS10] | 250 | – | 20 specific activity to metastin (1-54) |
| [dN]WNSFGL[Arg(Me)]F-NH2 [Compound No. 216: des(1)-[D-Asn2,Arg(Me)9]MS10] | 700 | – | 1 specific activity to metastin (1-54) |
| [dY]INSFGL[Arg(Me)]F-NH2 [Compound No. 228: des(1)-[D-Tyr2,Ile3,Arg(Me)9]MS10] | 40 | – | 5 specific activity to metastin (1-54) |
| [dY]TNSF[azaGly]L[Arg(Me)]F-NH2 [Compound No. 241: des(1)-[D-Tyr2,Thr3,AzaGly7,Arg(Me)9]MS10] | 56 | – | 1 specific activity to metastin (1-54) |
| YNWNSFGLRX (Pya(4)10; C-terminal amide) [Compound No. 17: [Pya(4)10]MS10] | 0.0066 | 5 specific activity to metastin (1-54) | – |
| [dY]NWNSFGLRF-NH2 [Compound No. 42: [D-Tyr1]MS10] | – | 30 specific activity to metastin (1-54) | – |
| YNWNSFGXRF (Nle8; C-terminal amide) [Compound No. 105: [Nle8]MS10] | 880 | 1 specific activity to metastin (1-54) | – |
| YN[dW]NSFGLRF-NH2 [Compound No. 40: [D-Trp3]MS10] | – | 30 specific activity to metastin (1-54) | – |
| [dY][dN]WNSF[azaGly]LR(Me)F-NH2 [Compound No. 237: [D-Tyr1,D-Asn2,AZaGly7,Arg(Me)9]MS10] | 27 | – | 3 specific activity to metastin (1-54) |
| B10 | – | 1 specific activity to metastin (1-54) | – |
| B11 | 820 | – | 1 specific activity to metastin (1-54) |
